Results on 1 molecule are retold here after patent CN105542008A (UNIV NANCHANG, dated 2016).

Experiment [1] has as its target T1, 重组表达的PSMA胞外区蛋白 (UniProt Q04609 44-750, limits assumed).
T1 construct: extracellular domain; also called 前列腺特异性膜抗原膜外区; PSMA蛋白; not shown: His tag (purified on HisTrap, detected with anti-His antibody)
Description: indirect phage-ELISA, PSMA extracellular domain coated at 5 μg/mL, HRP-anti-M13 detection.

The target in experiment [2] is T2, 前列腺特异性膜抗原 (PSMA) on LNCaP cells (UniProt Q04609 1-750, limits assumed).
T2 construct: whole, on cells; also called LNCaP细胞(表达PSMA)
T2 sequence (Q04609 whole entry): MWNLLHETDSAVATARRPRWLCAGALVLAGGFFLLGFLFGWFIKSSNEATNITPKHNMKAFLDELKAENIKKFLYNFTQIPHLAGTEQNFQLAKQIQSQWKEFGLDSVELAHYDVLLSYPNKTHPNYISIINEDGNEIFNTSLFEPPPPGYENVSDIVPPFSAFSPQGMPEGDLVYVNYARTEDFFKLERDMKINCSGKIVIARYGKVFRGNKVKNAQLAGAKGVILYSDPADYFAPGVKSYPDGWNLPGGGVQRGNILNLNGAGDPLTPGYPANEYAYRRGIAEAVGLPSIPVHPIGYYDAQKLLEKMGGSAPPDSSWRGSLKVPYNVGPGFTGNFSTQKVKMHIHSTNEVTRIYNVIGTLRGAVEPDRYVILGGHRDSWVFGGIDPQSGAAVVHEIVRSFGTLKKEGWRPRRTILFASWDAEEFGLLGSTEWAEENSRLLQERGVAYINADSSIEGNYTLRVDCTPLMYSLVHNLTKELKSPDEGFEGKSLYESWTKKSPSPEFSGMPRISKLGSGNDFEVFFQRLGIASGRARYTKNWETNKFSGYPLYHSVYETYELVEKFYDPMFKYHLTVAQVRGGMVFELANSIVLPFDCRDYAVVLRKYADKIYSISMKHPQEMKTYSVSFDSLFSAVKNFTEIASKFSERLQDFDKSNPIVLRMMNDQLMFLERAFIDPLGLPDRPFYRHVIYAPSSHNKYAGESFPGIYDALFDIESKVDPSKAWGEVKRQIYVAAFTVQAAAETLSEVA
Description: cell ELISA (HRP-anti-M13) and immunofluorescence on fixed LNCaP cells, with PSMA-negative MKN45 cells as comparison.

T1 sequence (Q04609 44-750 limits assumed): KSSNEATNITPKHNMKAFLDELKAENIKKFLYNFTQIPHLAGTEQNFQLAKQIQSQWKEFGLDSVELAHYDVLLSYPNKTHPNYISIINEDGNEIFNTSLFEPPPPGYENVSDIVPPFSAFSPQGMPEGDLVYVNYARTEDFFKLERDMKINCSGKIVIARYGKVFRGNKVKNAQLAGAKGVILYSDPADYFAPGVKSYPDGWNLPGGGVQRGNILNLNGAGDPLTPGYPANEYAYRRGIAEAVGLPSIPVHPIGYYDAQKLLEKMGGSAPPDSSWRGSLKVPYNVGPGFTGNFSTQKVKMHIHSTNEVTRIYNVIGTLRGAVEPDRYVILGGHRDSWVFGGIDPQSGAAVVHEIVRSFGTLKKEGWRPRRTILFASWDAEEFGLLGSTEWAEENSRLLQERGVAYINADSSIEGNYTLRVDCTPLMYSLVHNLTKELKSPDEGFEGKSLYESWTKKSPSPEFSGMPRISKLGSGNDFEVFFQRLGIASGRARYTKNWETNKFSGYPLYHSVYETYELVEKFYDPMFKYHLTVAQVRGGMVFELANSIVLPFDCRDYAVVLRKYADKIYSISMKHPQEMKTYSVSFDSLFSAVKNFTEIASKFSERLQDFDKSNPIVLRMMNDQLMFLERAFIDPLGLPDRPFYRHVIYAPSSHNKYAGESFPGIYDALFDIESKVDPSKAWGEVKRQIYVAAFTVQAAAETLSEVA

B1: 抗前列腺特异性膜抗原单域重链抗体噬菌体阳性克隆 (VHH)
VHH: QLQLVESGGGLVQPGGSLRLTCTTSGFSLRYHDIGWFRQAPGKEREGVSCITGSLGDPYVDESLQGRFTISRDDHKNMVYLRMNSLKSEDTALYYCAIVRGCKDHDAYADVRARGQGTQVTVSS
notes: also called 针对前列腺特异性膜抗原的单域重链抗体阳性克隆; 展示本发明所述纳米抗体的噬菌体克隆; not shown: the fusion to the phage coat protein is not described
For B1, the binding result in experiment [1] and in experiment [2] was “binds” in each case.
